{"source": "patent US20180030111A1", "key": {"[1]": {"biological_target": "C1q complement (rabbit serum as complement source) (rabbit)", "experiment": "cell-based or functional assay"}, "[2]": {"biological_target": "FcgRIIIa receptor (CD16a) on human NK cells (human) (UniProt P08637)", "sequence (P08637 17-254)": "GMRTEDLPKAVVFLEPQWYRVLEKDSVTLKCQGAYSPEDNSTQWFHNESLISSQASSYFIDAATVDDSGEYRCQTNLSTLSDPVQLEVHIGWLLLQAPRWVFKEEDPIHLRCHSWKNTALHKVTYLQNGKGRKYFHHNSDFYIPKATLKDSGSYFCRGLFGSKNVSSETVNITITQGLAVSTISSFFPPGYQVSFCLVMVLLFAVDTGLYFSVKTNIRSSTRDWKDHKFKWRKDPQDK", "experiment": "cell-based or functional assay"}, "[3]": {"biological_target": "C1q complement (rabbit serum as complement source) (rabbit)", "experiment": "cell-based or functional assay", "remark": "listed apart in the source"}, "[4]": {"biological_target": "CD32aH (FcgRIIa receptor, H at position 131) (human) (UniProt P12318)", "sequence (P12318 34-217)": "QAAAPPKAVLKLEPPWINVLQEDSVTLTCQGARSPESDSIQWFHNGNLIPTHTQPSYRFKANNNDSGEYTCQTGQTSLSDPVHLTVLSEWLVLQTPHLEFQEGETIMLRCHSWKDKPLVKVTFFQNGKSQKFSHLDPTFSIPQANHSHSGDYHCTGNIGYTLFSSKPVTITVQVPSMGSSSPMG", "experiment": "ELISA, purified IgG on coated receptor, ratio against wild-type"}, "[5]": {"biological_target": "CD32aR (FcgRIIa receptor, R at position 131) (human) (UniProt P12318)", "experiment": "ELISA, purified IgG on coated receptor, ratio against wild-type"}, "[6]": {"biological_target": "CD32b (FcgRIIb receptor) (human) (UniProt P31994)", "sequence (P31994 46-217)": "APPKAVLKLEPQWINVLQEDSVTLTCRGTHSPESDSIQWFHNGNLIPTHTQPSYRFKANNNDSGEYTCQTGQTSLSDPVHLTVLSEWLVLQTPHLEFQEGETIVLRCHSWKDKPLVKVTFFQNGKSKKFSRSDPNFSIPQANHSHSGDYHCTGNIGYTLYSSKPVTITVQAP", "experiment": "ELISA, purified IgG on coated receptor, ratio against wild-type"}, "[7]": {"biological_target": "CD64 (UniProt P12314)", "sequence (P12314 16-288 limits assumed)": "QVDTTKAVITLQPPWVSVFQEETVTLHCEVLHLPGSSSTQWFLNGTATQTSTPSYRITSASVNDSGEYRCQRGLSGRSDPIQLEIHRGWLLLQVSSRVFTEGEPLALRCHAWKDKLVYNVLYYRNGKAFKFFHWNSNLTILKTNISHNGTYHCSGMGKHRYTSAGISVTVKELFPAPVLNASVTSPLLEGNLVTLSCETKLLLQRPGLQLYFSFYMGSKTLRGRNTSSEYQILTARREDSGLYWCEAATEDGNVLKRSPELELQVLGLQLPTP", "experiment": "ELISA, purified IgG on coated receptor, ratio against wild-type"}, "[8]": {"biological_target": "C1q complement (rabbit serum as complement source) (rabbit)", "experiment": "cell-based or functional assay", "remark": "listed apart in the source"}}, "note": "Where two headings read alike, the source gives them in different places."}
{"substance": "anti-CD20 IgG variant J3A-28 (E333G, A378T, V397M) (antibody)", "values": [{"measurement": "CDC", "setting": "[1]", "result": 7.6}, {"measurement": "ADCC", "setting": "[2]", "result": 18.4}, {"measurement": "ADCC, EC50: Antibody concentration (ng/ml) giving 50% maximum lysis of an internal control", "setting": "[2]", "result": 0.57, "unit": "ng/mL"}, {"measurement": "ADCC, Ratio [WT]/[antibody]", "setting": "[2]", "result": 18.4}, {"measurement": "CDC, Antibody concentration (ng/ml) giving 50% lysis of an internal control", "setting": "[3]", "result": 31, "unit": "ng/mL"}, {"measurement": "CDC, Ratio [WT]/[antibody]", "setting": "[3]", "result": 7.64}, {"measurement": "ELISA ratio (purified antibodies)", "setting": "[4]", "result": 1.1}, {"measurement": "ELISA ratio (purified antibodies)", "setting": "[5]", "result": 1.3}, {"measurement": "ELISA ratio (purified antibodies)", "setting": "[6]", "result": 1.6}, {"measurement": "ELISA ratio (purified antibodies)", "setting": "[7]", "result": 1.3}]}
{"substance": "anti-CD20 IgG variant J3B-16 (S267G, A378T, V397M) (antibody)", "values": [{"measurement": "CDC, Antibody concentration (ng/ml) giving 50% lysis of an internal control", "setting": "[1]", "result": 210, "unit": "ng/mL"}, {"measurement": "CDC, Ratio [WT]/[antibody]", "setting": "[1]", "result": 1.25}]}
{"substance": "anti-CD20 IgG variant J3B-23 (N286I, A378V, F423Y) (antibody)", "values": [{"measurement": "CDC", "setting": "[1]", "result": 2.4}, {"measurement": "ADCC", "setting": "[2]", "result": 18.4}, {"measurement": "ADCC, EC50: Antibody concentration (ng/ml) giving 50% maximum lysis of an internal control", "setting": "[2]", "result": 0.57, "unit": "ng/mL"}]}
{"substance": "anti-CD20 IgG variant J3B-118 (P396L, N421T) (antibody)", "values": [{"measurement": "CDC", "setting": "[1]", "result": 12.2}, {"measurement": "CDC, Antibody concentration (ng/ml) giving 50% lysis of an internal control", "setting": "[1]", "result": 38.7, "unit": "ng/mL"}, {"measurement": "CDC, Ratio [WT]/[antibody]", "setting": "[1]", "result": 6.77}, {"measurement": "ADCC", "setting": "[2]", "result": 9.7}, {"measurement": "ELISA ratio (purified antibodies)", "setting": "[4]", "result": 1}, {"measurement": "ELISA ratio (purified antibodies)", "setting": "[5]", "result": 1.1}, {"measurement": "ELISA ratio (purified antibodies)", "setting": "[6]", "result": 1}, {"measurement": "ELISA ratio (purified antibodies)", "setting": "[7]", "result": 1.6}]}
{"substance": "anti-CD20 IgG variant J3B-118A (P396L, N421T, A378V) (antibody)", "values": [{"measurement": "CDC", "setting": "[1]", "result": 11}, {"measurement": "ADCC", "setting": "[2]", "result": 10.8}, {"measurement": "ADCC, EC50: Antibody concentration (ng/ml) giving 50% maximum lysis of an internal control", "setting": "[2]", "result": 0.97, "unit": "ng/mL"}, {"measurement": "ADCC, Ratio [WT]/[antibody]", "setting": "[2]", "result": 10.8}, {"measurement": "CDC, Antibody concentration (ng/ml) giving 50% lysis of an internal control", "setting": "[3]", "result": 21.6, "unit": "ng/mL"}, {"measurement": "CDC, Ratio [WT]/[antibody]", "setting": "[3]", "result": 11}, {"measurement": "ELISA ratio (purified antibodies)", "setting": "[4]", "result": 2.7}, {"measurement": "ELISA ratio (purified antibodies)", "setting": "[5]", "result": 1.8}, {"measurement": "ELISA ratio (purified antibodies)", "setting": "[6]", "result": 3.7}, {"measurement": "ELISA ratio (purified antibodies)", "setting": "[7]", "result": 1.4}]}
{"substance": "anti-CD20 IgG variant K3B-87 (V323I, F405L) (antibody)", "values": [{"measurement": "ADCC, EC50: Antibody concentration (ng/ml) giving 50% maximum lysis of an internal control", "setting": "[2]", "result": 16.3, "unit": "ng/mL"}, {"measurement": "ADCC, Ratio [WT]/[antibody]", "setting": "[2]", "result": 0.64}, {"measurement": "CDC, Antibody concentration (ng/ml) giving 50% lysis of an internal control", "setting": "[3]", "result": 107, "unit": "ng/mL"}, {"measurement": "CDC, Ratio [WT]/[antibody]", "setting": "[3]", "result": 2.22}]}
{"substance": "anti-CD20 IgG variant N3A-27 (K290E, A378V, K392R, S440G) (antibody)", "values": [{"measurement": "ADCC, EC45: Antibody concentration (ng/ml) giving 45% maximum lysis of an internal control", "setting": "[2]", "result": 18.7, "unit": "ng/mL"}, {"measurement": "ADCC, Ratio [WT]/[antibody]", "setting": "[2]", "result": 0.86}, {"measurement": "CDC, Antibody concentration (ng/ml) giving 50% lysis of an internal control", "setting": "[8]", "result": 179, "unit": "ng/mL"}, {"measurement": "CDC, Ratio [WT]/[antibody]", "setting": "[8]", "result": 0.74}]}
{"substance": "anti-CD20 IgG variant N3A-32 (K326T, K334N, P352S, N421T) (antibody)", "values": [{"measurement": "ADCC, EC45: Antibody concentration (ng/ml) giving 45% maximum lysis of an internal control", "setting": "[2]", "result": 2.9, "unit": "ng/mL"}, {"measurement": "ADCC, Ratio [WT]/[antibody]", "setting": "[2]", "result": 0.55}, {"measurement": "CDC, Antibody concentration (ng/ml) giving 50% lysis of an internal control", "setting": "[8]", "result": 66, "unit": "ng/mL"}, {"measurement": "CDC, Ratio [WT]/[antibody]", "setting": "[8]", "result": 2.02}]}
{"substance": "anti-CD20 IgG variant N3A-58 (V284L, K334R, A378V, K447N) (antibody)", "values": [{"measurement": "ADCC, EC45: Antibody concentration (ng/ml) giving 45% maximum lysis of an internal control", "setting": "[2]", "result": 4.4, "unit": "ng/mL"}, {"measurement": "ADCC, Ratio [WT]/[antibody]", "setting": "[2]", "result": 0.36}, {"measurement": "CDC, Antibody concentration (ng/ml) giving 50% lysis of an internal control", "setting": "[8]", "result": 36, "unit": "ng/mL"}, {"measurement": "CDC, Ratio [WT]/[antibody]", "setting": "[8]", "result": 3.69}]}
{"substance": "anti-CD20 IgG variant O3A-44 (A378V, K439R) (antibody)", "values": [{"measurement": "ADCC, EC45: Antibody concentration (ng/ml) giving 45% maximum lysis of an internal control", "setting": "[2]", "result": 2.6, "unit": "ng/mL"}, {"measurement": "ADCC, Ratio [WT]/[antibody]", "setting": "[2]", "result": 0.62}, {"measurement": "CDC, Antibody concentration (ng/ml) giving 50% lysis of an internal control", "setting": "[8]", "result": 129, "unit": "ng/mL"}, {"measurement": "CDC, Ratio [WT]/[antibody]", "setting": "[8]", "result": 1.03}]}
{"substance": "anti-CD20 IgG variant O3A-86 (K248E, K290E, N361H, P396L) (antibody)", "values": [{"measurement": "ADCC, EC45: Antibody concentration (ng/ml) giving 45% maximum lysis of an internal control", "setting": "[2]", "result": 4.4, "unit": "ng/mL"}, {"measurement": "ADCC, Ratio [WT]/[antibody]", "setting": "[2]", "result": 0.36}, {"measurement": "CDC, Antibody concentration (ng/ml) giving 50% lysis of an internal control", "setting": "[8]", "result": 44, "unit": "ng/mL"}, {"measurement": "CDC, Ratio [WT]/[antibody]", "setting": "[8]", "result": 3.02}]}
{"substance": "anti-CD20 IgG variant P4B-89 (T307P, T366A, A378V) (antibody)", "values": [{"measurement": "ADCC, EC45: Antibody concentration (ng/ml) giving 45% maximum lysis of an internal control", "setting": "[2]", "result": 3.6, "unit": "ng/mL"}, {"measurement": "ADCC, Ratio [WT]/[antibody]", "setting": "[2]", "result": 0.44}, {"measurement": "CDC, Antibody concentration (ng/ml) giving 50% lysis of an internal control", "setting": "[8]", "result": 115, "unit": "ng/mL"}, {"measurement": "CDC, Ratio [WT]/[antibody]", "setting": "[8]", "result": 1.16}]}
{"substance": "anti-CD20 IgG variant Q4B-68 (T307P, A378V, T394P) (antibody)", "values": [{"measurement": "ADCC, EC45: Antibody concentration (ng/ml) giving 45% maximum lysis of an internal control", "setting": "[2]", "result": 1.7, "unit": "ng/mL"}, {"measurement": "ADCC, Ratio [WT]/[antibody]", "setting": "[2]", "result": 0.94}, {"measurement": "CDC, Antibody concentration (ng/ml) giving 50% lysis of an internal control", "setting": "[8]", "result": 126, "unit": "ng/mL"}, {"measurement": "CDC, Ratio [WT]/[antibody]", "setting": "[8]", "result": 1.06}]}
{"substance": "anti-CD20 IgG variant QL2A-16 (K248E, N421T) (antibody)", "values": [{"measurement": "ADCC, EC50: Antibody concentration (ng/ml) giving 50% maximum lysis of an internal control", "setting": "[2]", "result": 4.36, "unit": "ng/mL"}, {"measurement": "ADCC, Ratio [WT]/[antibody]", "setting": "[2]", "result": 2.41}, {"measurement": "CDC, Antibody concentration (ng/ml) giving 50% lysis of an internal control", "setting": "[3]", "result": 51.5, "unit": "ng/mL"}, {"measurement": "CDC, Ratio [WT]/[antibody]", "setting": "[3]", "result": 4.59}]}
